# ± gives the uncertainty stated by the source.
# Assay: abundance fitness (aPCA) (normalised: wild type 0, dead -1); higher = more abundant; growth selection in yeast, the domain comes from the species named
# Details: Homo sapiens
row,Substance,abundance fitness
1,"BAG family molecular chaperone regulator 3 H42L, O95817",-0.641 ± 0.18
2,"BAG family molecular chaperone regulator 3 H42M, O95817",-0.37 ± 0.11
3,"BAG family molecular chaperone regulator 3 H42P, O95817",-0.788 ± 0.13
4,"BAG family molecular chaperone regulator 3 H42R, O95817",-0.448 ± 0.18
5,"BAG family molecular chaperone regulator 3 H42S, O95817",-0.678 ± 0.25
6,"BAG family molecular chaperone regulator 3 H42T, O95817",-0.55 ± 0.21
7,"BAG family molecular chaperone regulator 3 H42W, O95817",-0.886 ± 0.14
8,"BAG family molecular chaperone regulator 3 H42Y, O95817",-0.55 ± 0.088
9,"BAG family molecular chaperone regulator 3 I28A, O95817",-0.423 ± 0.2
10,"BAG family molecular chaperone regulator 3 I28C, O95817",-0.375 ± 0.22
11,"BAG family molecular chaperone regulator 3 I28D, O95817",-0.503 ± 0.18
12,"BAG family molecular chaperone regulator 3 I28E, O95817",0.316 ± 0.11
13,"BAG family molecular chaperone regulator 3 I28G, O95817",-0.088 ± 0.08
14,"BAG family molecular chaperone regulator 3 I28L, O95817",-0.444 ± 0.17
15,"BAG family molecular chaperone regulator 3 I28M, O95817",0.248 ± 0.14
16,"BAG family molecular chaperone regulator 3 I28N, O95817",0.206 ± 0.3
17,"BAG family molecular chaperone regulator 3 I28P, O95817",-0.713 ± 0.28
18,"BAG family molecular chaperone regulator 3 I28Q, O95817",-0.307 ± 0.22

row,Substance,abundance fitness
1,"BAG family molecular chaperone regulator 3 I28R, O95817",0.171 ± 0.066
2,"BAG family molecular chaperone regulator 3 I28S, O95817",0.183 ± 0.083
3,"BAG family molecular chaperone regulator 3 I28T, O95817",-0.636 ± 0.29
4,"BAG family molecular chaperone regulator 3 I28V, O95817",0.068 ± 0.1
5,"BAG family molecular chaperone regulator 3 I28Y, O95817",-0.19 ± 0.3
6,"BAG family molecular chaperone regulator 3 I30A, O95817",-0.011 ± 0.11
7,"BAG family molecular chaperone regulator 3 I30C, O95817",0.028 ± 0.16
8,"BAG family molecular chaperone regulator 3 I30D, O95817",-0.389 ± 0.14
9,"BAG family molecular chaperone regulator 3 I30E, O95817",-0.226 ± 0.079
10,"BAG family molecular chaperone regulator 3 I30G, O95817",-0.44 ± 0.087
11,"BAG family molecular chaperone regulator 3 I30H, O95817",-0.114 ± 0.074
12,"BAG family molecular chaperone regulator 3 I30K, O95817",-0.087 ± 0.2
13,"BAG family molecular chaperone regulator 3 I30L, O95817",0.249 ± 0.091
14,"BAG family molecular chaperone regulator 3 I30N, O95817",-0.166 ± 0.28
15,"BAG family molecular chaperone regulator 3 I30P, O95817",-0.661 ± 0.084
16,"BAG family molecular chaperone regulator 3 I30R, O95817",-0.133 ± 0.084
17,"BAG family molecular chaperone regulator 3 I30S, O95817",-0.191 ± 0.077
18,"BAG family molecular chaperone regulator 3 I30T, O95817",-0.32 ± 0.2
